# T1: MBP–Nab2p NLS R235A (S. cerevisiae, UniProt P32505 201-251, R235A)
# T1 sequence: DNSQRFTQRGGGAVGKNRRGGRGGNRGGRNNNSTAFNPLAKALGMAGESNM
# T2: MBP–Nab2p NLS R235H (S. cerevisiae, UniProt P32505 201-251, R235 to histidine)
# T2 sequence: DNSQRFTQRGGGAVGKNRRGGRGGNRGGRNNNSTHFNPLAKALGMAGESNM
# T3: MBP–Nab2p NLS F236A (S. cerevisiae, UniProt P32505 201-251, F236A)
# T3 sequence: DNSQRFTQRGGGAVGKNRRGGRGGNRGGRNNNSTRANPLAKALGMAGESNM
# T4: MBP–Nab2p NLS F236L (S. cerevisiae, UniProt P32505 201-251, F236L)
# T4 sequence: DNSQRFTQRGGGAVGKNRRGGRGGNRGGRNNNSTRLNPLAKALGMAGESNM
# T5: MBP–Nab2p NLS, all of the arginines mutated to lysines (S. cerevisiae, UniProt P32505 201-251, R218K | R219K | R222K | R226K | R229K)
# T5 sequence: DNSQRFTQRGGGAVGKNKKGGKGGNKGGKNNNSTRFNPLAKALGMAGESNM
# Legend:
# Assay in all cases: ITC
# MBP–Nab2p NLS R235A = molecular target: T1, MBP–Nab2p NLS R235A
# MBP–Nab2p NLS R235H = molecular target: T2, MBP–Nab2p NLS R235H
# MBP–Nab2p NLS F236A = molecular target: T3, MBP–Nab2p NLS F236A
# MBP–Nab2p NLS F236L = molecular target: T4, MBP–Nab2p NLS F236L
# [1] = molecular target: T5, MBP–Nab2p NLS, all of the arginines …
binder,measurement,setting,value
Kap104p (receptor) MASTWKPAEDYVLQLATLLQNCMSPNPEIRNNAMEAMENFQLQPEFLNYLCYILIEGESDDVLKQHYSLQDLQNNRATAGMLLKNSMLGGNNLIKSNSHDLGYVKSNIIHGLYNSNNNLVSNVTGIVITTLFSTYYRQHRDDPTGLQMLYQLLELTSNGNEPSIKALSKIMEDSAQFFQLEWSGNTKPMEALLDSFFRFISNPNFSPVIRSESVKCINTVIPLQTQSFIVRLDKFLEIIFQLAQNDENDLVRAQICISFSFLLEFRPDKLVSHLDGIVQFMLHLITTVNEEKVAIEACEFLHAFATSPNIPEHILQPYVKDIVPILLSKMVYNEESIVLLEASNDDDAFLEDKDEDIKPIAPRIVKKKEAGNGEDADDNEDDDDDDDDEDGDVDTQWNLRKCSAATLDVMTNILPHQVMDIAFPFLREHLGSDRWFIREATILALGAMAEGGMKYFNDGLPALIPFLVEQLNDKWAPVRKMTCWTLSRFSPWILQDHTEFLIPVLEPIINTLMDKKKDVQEAAISSVAVFIENADSELVETLFYSQLLTSFDKCLKYYKKKNLIILYDAIGRFAEKCALDETAMQIILPPLIEKWALLSDSDKELWPLLECLSCVASSLGERFMPMAPEVYNRAFRILCHCVELEAKSHQDPTIVVPEKDFIITSLDLIDGLVQGLGAHSQDLLFPQGTKDLTILKIMLECLQDPVHEVRQSCFALLGDIVYFFNSELVIGNLEDFLKLIGTEIMHNDDSDGTPAVINAIWALGLISERIDLNTYIIDMSRIILDLFTTNTQIVDSSVMENLSVTIGKMGLTHPEVFSSGAFANDSNWNKWCLSVNALDDVEEKSSAYMGFLKIINLTSTEVTMSNDTIHKIVTGLSSNVEANVFAQEIYTFLMNHSAQISAINFTPDEISFLQQFTS,Kd,MBP–Nab2p NLS R235A,203 nM
same,Kd,MBP–Nab2p NLS R235H,63 nM
same,Kd,MBP–Nab2p NLS F236A,296 nM
same,Kd,MBP–Nab2p NLS F236L,66 nM
same,Kd,[1],21 nM
